The values that follow come from patent publication US20220023399A1 (CONTRAFECT, published 2022).

In this assay the target is T1, human serum albumin (human, UniProt P02768 25-609).
T1 construct: also called HSA; rHSA
Put plainly: confocal/deconvolution microscopy; S. aureus ATCC 700699 pretreated with HSA 40 mg/mL, CF-301^RHD at 0.25×MIC.

T1 sequence (P02768 25-609): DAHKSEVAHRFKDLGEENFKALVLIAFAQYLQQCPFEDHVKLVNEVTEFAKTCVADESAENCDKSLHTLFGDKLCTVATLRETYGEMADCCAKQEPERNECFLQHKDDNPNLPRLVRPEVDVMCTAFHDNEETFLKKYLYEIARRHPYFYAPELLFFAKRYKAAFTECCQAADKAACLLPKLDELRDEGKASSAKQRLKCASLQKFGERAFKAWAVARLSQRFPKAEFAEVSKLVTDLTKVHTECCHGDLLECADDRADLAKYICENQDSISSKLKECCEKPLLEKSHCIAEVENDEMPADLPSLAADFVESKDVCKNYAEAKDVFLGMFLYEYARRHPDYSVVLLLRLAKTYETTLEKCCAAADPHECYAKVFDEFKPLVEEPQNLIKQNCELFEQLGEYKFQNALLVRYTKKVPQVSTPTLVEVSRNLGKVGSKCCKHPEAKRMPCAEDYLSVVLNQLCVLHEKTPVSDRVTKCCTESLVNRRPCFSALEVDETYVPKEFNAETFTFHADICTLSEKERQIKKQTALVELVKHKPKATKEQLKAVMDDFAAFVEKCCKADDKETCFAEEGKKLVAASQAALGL

B1: rhodamine-labeled PlySs2 (CF-301) (enzyme)
chain: MTTVNEALNNVRAQVGSGVSVGNGECYALASWYERMISPDATVGLGAGVGWVSGAIGDTISAKNIGSSYNWQANGWTVSTSGPFKAGQIVTLGATPGNPYGHVVIVEAVDGDRLTILEQNYGGKRYPVRNYYSAASYRQQVVHYITPPGTVAQSAPNLAGSRSYRETGTMTVTVDALNVRRAPNTSGEIVAVYKRGESFDYDTVIIDVNGYVWVSYIGGSGKRNYVATGATKDGKRFGNAWGTFK
notes: also called CF-301^RHD; CF-301^RHOD
Turning to B1, the binding result is “binds”.
